# Source: patent US20220064329A1 (Novo Nordisk, published 2022)
# T1: recombinant human activated Factor VII (FVIIa) (human, UniProt P08709 61-212; P08709 213-466, ten glutamate residues of the Gla domain may be gamma-carboxylated)
# T1 construct: chains tethered by a disulfide bond; also called Factor VIIa; rFVIIa
# T1 sequence 1: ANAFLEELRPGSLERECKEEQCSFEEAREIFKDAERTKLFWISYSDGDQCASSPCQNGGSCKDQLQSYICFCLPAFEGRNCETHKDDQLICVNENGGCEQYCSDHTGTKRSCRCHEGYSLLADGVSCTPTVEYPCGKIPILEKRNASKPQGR
# T1 sequence 2: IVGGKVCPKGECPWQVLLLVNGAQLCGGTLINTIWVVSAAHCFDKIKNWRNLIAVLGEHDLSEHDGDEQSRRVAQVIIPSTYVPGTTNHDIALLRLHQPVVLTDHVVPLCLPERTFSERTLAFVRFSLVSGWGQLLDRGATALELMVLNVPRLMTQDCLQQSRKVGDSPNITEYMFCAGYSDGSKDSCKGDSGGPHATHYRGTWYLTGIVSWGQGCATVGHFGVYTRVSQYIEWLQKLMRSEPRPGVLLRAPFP
# Biological target: T1, recombinant human activated Factor VII …
# Assay: BLI (Fortebio)
row,Binder,Kd [nM]
1,"VH SEQ ID NO 562 / VL SEQ ID NO 414 (antibody, IgG4, V domains shown, humanized 11F2; IgG4 S228P/kappa) VH: QVQLQESGPGLVKPSDTLSLTCAVSGYSISSDSAWSWIRQPPGKGLEWIGYIQYSGSTNYNPSLKSRVTMSRDTSKNQFSLKLSSVTALDTAVYYCARSVNYYGNSFAVGPWGQGTLVTVSS VL: EIVLTQSPATLSLSPGERATLSCRASQGVSDYLAWYQQKPGQAPRLLIKYASQPATGIPARFSGSGSGTDFTLTISSLEPEDFAVYYCQNGHSFPLTFGQGTKLEIK",8.8
2,"VH SEQ ID NO 562 / VL SEQ ID NO 422 (antibody, IgG4, V domains shown, humanized 11F2; IgG4 S228P/kappa) VH: QVQLQESGPGLVKPSDTLSLTCAVSGYSISSDSAWSWIRQPPGKGLEWIGYIQYSGSTNYNPSLKSRVTMSRDTSKNQFSLKLSSVTALDTAVYYCARSVNYYGNSFAVGPWGQGTLVTVSS VL: EIVLTQSPATLSLSPGERATLSCRASQGVSDYLAWYQQKPGQAPRLLIKYASQPATGIPARFSGSGSGTDFTLTISSLEPEDFAVYYCQQGHSFPLTFGQGTKLEIK",18
3,"VH SEQ ID NO 570 / VL SEQ ID NO 326 (antibody, IgG4, V domains shown, humanized 11F2; IgG4 S228P/kappa) VH: QVQLQESGPGLVKPSDTLSLTCAVSGYSISSDSAWSWIRQPPGKGLEWIGYIQYSGSTNYNPSLKSRVTMSRDTSKNQFSLKLSSVTAADTAVYYCARSVNYYGNSFAVGPWGQGTLVTVSS VL: EIVLTQSPATLSLSPGERATLSCRASQGISDYLHWYQQKPGEAPRLLIKYTSQPATGIPARFSGSGSGTDFTLTISSLEPEDFGVYYCQNGHSFPLTFGAGTKLELK",0.55
4,"VH SEQ ID NO 562 / VL SEQ ID NO 494 (antibody, IgG4, V domains shown, humanized 11F2; IgG4 S228P/kappa) VH: QVQLQESGPGLVKPSDTLSLTCAVSGYSISSDSAWSWIRQPPGKGLEWIGYIQYSGSTNYNPSLKSRVTMSRDTSKNQFSLKLSSVTALDTAVYYCARSVNYYGNSFAVGPWGQGTLVTVSS VL: EIVLTQSPATLSLSPGERATLSCRASQGVSDYLHWYQQKPGQAPRLLIKYASQPATGIPARFSGSGSGTDFTLTISSLEPEDVAVYYCQNGHSFPLTFGQGTKLEIK",1.6
5,"VH SEQ ID NO 562 / VL SEQ ID NO 430 (antibody, IgG4, V domains shown, humanized 11F2; IgG4 S228P/kappa) VH: QVQLQESGPGLVKPSDTLSLTCAVSGYSISSDSAWSWIRQPPGKGLEWIGYIQYSGSTNYNPSLKSRVTMSRDTSKNQFSLKLSSVTALDTAVYYCARSVNYYGNSFAVGPWGQGTLVTVSS VL: EIVLTQSPATLSLSPGERATLSCRASQGVSDYLAWYQQKPGQAPRLLIKYASQPATGIPARFSGSGSGTDFTLTISSLEPEDFGVYYCQNGHSFPLTFGQGTKLEIK",7.9
6,"VH SEQ ID NO 562 / VL SEQ ID NO 454 (antibody, IgG4, V domains shown, humanized 11F2; IgG4 S228P/kappa) VH: QVQLQESGPGLVKPSDTLSLTCAVSGYSISSDSAWSWIRQPPGKGLEWIGYIQYSGSTNYNPSLKSRVTMSRDTSKNQFSLKLSSVTALDTAVYYCARSVNYYGNSFAVGPWGQGTLVTVSS VL: EIVLTQSPATLSLSPGERATLSCRASQGVSDYLHWYQQKPGEAPRLLIKYASQPATGIPARFSGSGSGTDFTLTISSLEPEDFAVYYCQNGHSFPLTFGQGTKLEIK",1.4
7,"VH SEQ ID NO 562 / VL SEQ ID NO 462 (antibody, IgG4, V domains shown, humanized 11F2; IgG4 S228P/kappa) VH: QVQLQESGPGLVKPSDTLSLTCAVSGYSISSDSAWSWIRQPPGKGLEWIGYIQYSGSTNYNPSLKSRVTMSRDTSKNQFSLKLSSVTALDTAVYYCARSVNYYGNSFAVGPWGQGTLVTVSS VL: EIVLTQSPATLSLSPGERATLSCRASQGVSDYLHWYQQKPGQAPRLLIKYASQPATGIPARFSGSGSGTDFTLTISSLEPEDFAVYYCQNGHSFPLTFGAGTKLEIK",1.4
8,"VH SEQ ID NO 562 / VL SEQ ID NO 486 (antibody, IgG4, V domains shown, humanized 11F2; IgG4 S228P/kappa) VH: QVQLQESGPGLVKPSDTLSLTCAVSGYSISSDSAWSWIRQPPGKGLEWIGYIQYSGSTNYNPSLKSRVTMSRDTSKNQFSLKLSSVTALDTAVYYCARSVNYYGNSFAVGPWGQGTLVTVSS VL: EIVLTQSPATLSLSPGERATLSCRASQGVSDYLHWYQQKPGQAPRLLIKYASQPATGIPARFSGSGSGTDFTLTISSLEPEDFGVYYCQNGHSFPLTFGQGTKLEIK",1.3
9,"VH SEQ ID NO 570 / VL SEQ ID NO 382 (antibody, IgG4, V domains shown, humanized 11F2; IgG4 S228P/kappa) VH: QVQLQESGPGLVKPSDTLSLTCAVSGYSISSDSAWSWIRQPPGKGLEWIGYIQYSGSTNYNPSLKSRVTMSRDTSKNQFSLKLSSVTAADTAVYYCARSVNYYGNSFAVGPWGQGTLVTVSS VL: EIVLTQSPATLSLSPGERATLSCRASQGLSDYLHWYQQKPGEAPRLLIKYASQPATGIPARFSGSGSGTDFTLTISSLEPEDFAVYYCQNGHSFPLTFGQGTKLEIK",1.3

# Further lines, results first:
row,Kd [nM],Binder
1,0.92,"VH SEQ ID NO 570 / VL SEQ ID NO 334 (antibody, IgG4, V domains shown, humanized 11F2; IgG4 S228P/kappa) VH: QVQLQESGPGLVKPSDTLSLTCAVSGYSISSDSAWSWIRQPPGKGLEWIGYIQYSGSTNYNPSLKSRVTMSRDTSKNQFSLKLSSVTAADTAVYYCARSVNYYGNSFAVGPWGQGTLVTVSS VL: EIVLTQSPATLSLSPGERATLSCRASQGISDYLHWYQQKPGQAPRLLIKYASQPATGIPARFSGSGSGTDFTLTISSLEPEDFAVYYCQNGHSFPLTFGQGTKLEIK"
2,1,"VH SEQ ID NO 570 / VL SEQ ID NO 350 (antibody, IgG4, V domains shown, humanized 11F2; IgG4 S228P/kappa) VH: QVQLQESGPGLVKPSDTLSLTCAVSGYSISSDSAWSWIRQPPGKGLEWIGYIQYSGSTNYNPSLKSRVTMSRDTSKNQFSLKLSSVTAADTAVYYCARSVNYYGNSFAVGPWGQGTLVTVSS VL: EIVLTQSPATLSLSPGERATLSCRASQGISDYLHWYQQKPGQAPRLLIKYTSQPATGIPARFSGSGSGTDFTLTISSLEPEDFAVYYCQNGHSFPLTFGAGTKLELK"
3,0.85,"VH SEQ ID NO 570 / VL SEQ ID NO 358 (antibody, IgG4, V domains shown, humanized 11F2; IgG4 S228P/kappa) VH: QVQLQESGPGLVKPSDTLSLTCAVSGYSISSDSAWSWIRQPPGKGLEWIGYIQYSGSTNYNPSLKSRVTMSRDTSKNQFSLKLSSVTAADTAVYYCARSVNYYGNSFAVGPWGQGTLVTVSS VL: EIVLTQSPATLSLSPGERATLSCRASQGISDYLHWYQQKPGQAPRLLIKYTSQPATGIPARFSGSGSGTDFTLTISSLEPEDFAVYYCQNGHSFPLTFGQGTKLEIK"
4,11,"VH SEQ ID NO 562 / VL SEQ ID NO 438 (antibody, IgG4, V domains shown, humanized 11F2; IgG4 S228P/kappa) VH: QVQLQESGPGLVKPSDTLSLTCAVSGYSISSDSAWSWIRQPPGKGLEWIGYIQYSGSTNYNPSLKSRVTMSRDTSKNQFSLKLSSVTALDTAVYYCARSVNYYGNSFAVGPWGQGTLVTVSS VL: EIVLTQSPATLSLSPGERATLSCRASQGVSDYLAWYQQKPGQAPRLLIKYASQPATGIPARFSGSGSGTDFTLTISSLEPEDVAVYYCQNGHSFPLTFGQGTKLEIK"
5,14,"VH SEQ ID NO 570 / VL SEQ ID NO 366 (antibody, IgG4, V domains shown, humanized 11F2; IgG4 S228P/kappa) VH: QVQLQESGPGLVKPSDTLSLTCAVSGYSISSDSAWSWIRQPPGKGLEWIGYIQYSGSTNYNPSLKSRVTMSRDTSKNQFSLKLSSVTAADTAVYYCARSVNYYGNSFAVGPWGQGTLVTVSS VL: EIVLTQSPATLSLSPGERATLSCRASQGLSDYLAWYQQKPGEAPRLLIKYASQPATGIPARFSGSGSGTDFTLTISSLEPEDFAVYYCQNGHSFPLTFGQGTKLEIK"
6,1.4,"VH SEQ ID NO 562 / VL SEQ ID NO 470 (antibody, IgG4, V domains shown, humanized 11F2; IgG4 S228P/kappa) VH: QVQLQESGPGLVKPSDTLSLTCAVSGYSISSDSAWSWIRQPPGKGLEWIGYIQYSGSTNYNPSLKSRVTMSRDTSKNQFSLKLSSVTALDTAVYYCARSVNYYGNSFAVGPWGQGTLVTVSS VL: EIVLTQSPATLSLSPGERATLSCRASQGVSDYLHWYQQKPGQAPRLLIKYASQPATGIPARFSGSGSGTDFTLTISSLEPEDFAVYYCQNGHSFPLTFGQGTKLEIK"
7,1.1,"VH SEQ ID NO 562 / VL SEQ ID NO 502 (antibody, IgG4, V domains shown, humanized 11F2; IgG4 S228P/kappa) VH: QVQLQESGPGLVKPSDTLSLTCAVSGYSISSDSAWSWIRQPPGKGLEWIGYIQYSGSTNYNPSLKSRVTMSRDTSKNQFSLKLSSVTALDTAVYYCARSVNYYGNSFAVGPWGQGTLVTVSS VL: EIVLTQSPATLSLSPGERATLSCRASQGVSDYLHWYQQKPGQAPRLLIKYTSQPATGIPARFSGSGSGTDFTLTISSLEPEDFAVYYCQNGHSFPLTFGQGTKLEIK"
8,2.6,"VH SEQ ID NO 562 / VL SEQ ID NO 478 (antibody, IgG4, V domains shown, humanized 11F2; IgG4 S228P/kappa) VH: QVQLQESGPGLVKPSDTLSLTCAVSGYSISSDSAWSWIRQPPGKGLEWIGYIQYSGSTNYNPSLKSRVTMSRDTSKNQFSLKLSSVTALDTAVYYCARSVNYYGNSFAVGPWGQGTLVTVSS VL: EIVLTQSPATLSLSPGERATLSCRASQGVSDYLHWYQQKPGQAPRLLIKYASQPATGIPARFSGSGSGTDFTLTISSLEPEDFAVYYCQQGHSFPLTFGQGTKLEIK"
9,1.5,"VH SEQ ID NO 570 / VL SEQ ID NO 342 (antibody, IgG4, V domains shown, humanized 11F2; IgG4 S228P/kappa) VH: QVQLQESGPGLVKPSDTLSLTCAVSGYSISSDSAWSWIRQPPGKGLEWIGYIQYSGSTNYNPSLKSRVTMSRDTSKNQFSLKLSSVTAADTAVYYCARSVNYYGNSFAVGPWGQGTLVTVSS VL: EIVLTQSPATLSLSPGERATLSCRASQGISDYLHWYQQKPGQAPRLLIKYTSQPATGIPARFSGSGSGRDFTLTISSLEPEDFAVYYCQNGHSFPLTFGAGTKLELK"
10,13,"VH SEQ ID NO 570 / VL SEQ ID NO 310 (antibody, IgG4, V domains shown, humanized 11F2; IgG4 S228P/kappa) VH: QVQLQESGPGLVKPSDTLSLTCAVSGYSISSDSAWSWIRQPPGKGLEWIGYIQYSGSTNYNPSLKSRVTMSRDTSKNQFSLKLSSVTAADTAVYYCARSVNYYGNSFAVGPWGQGTLVTVSS VL: EIVLTQSPATLSLSPGERATLSCRASQGISDYLAWYQQKPGQAPRLLIKYASQPATGIPARFSGSGSGTDFTLTISSLEPEDFAVYYCQNGHSFPLTFGQGTKLEIK"
11,0.83,"VH SEQ ID NO 570 / VL SEQ ID NO 318 (antibody, IgG4, V domains shown, humanized 11F2; IgG4 S228P/kappa) VH: QVQLQESGPGLVKPSDTLSLTCAVSGYSISSDSAWSWIRQPPGKGLEWIGYIQYSGSTNYNPSLKSRVTMSRDTSKNQFSLKLSSVTAADTAVYYCARSVNYYGNSFAVGPWGQGTLVTVSS VL: EIVLTQSPATLSLSPGERATLSCRASQGISDYLHWYQQKPGEAPRLLIKYTSQPATGIPARFSGSGSGTDFTLTISSLEPEDFAVYYCQNGHSFPLTFGQGTKLEIK"
